Five molecules from publication PMC10783636, “Chlorophyll biosynthesis under the control of arginine metabolism” (Cell Reports, 2023) can be followed below.

Data set [1] has as its target 3×FLAG-tagged ArgD (N-acetylornithine aminotransferase) of Synechocystis sp. PCC 6803 (Synechocystis sp. PCC 6803) (UniProt P73133). Description: co-IP; f.ArgD or f.AstC purified from the soluble fraction of Synechocystis strains (ΔargD or ΔcphB background; cells with nitrate, without or with 1 mM Orn for 24 h) on anti-FLAG M2 gel, eluted with 3xFLAG peptide; SDS-PAGE, stained, blotted and probed with anti-Gun4 and anti-CphB.

The target is the same in data set [2]. Description: co-IP; f.ArgD from Synechocystis cells grown with 18 mM nitrate without or with Orn (1 mM for 24 h; 100 μM for 1 h); proteins released from the anti-FLAG resin with 1% SDS instead of FLAG peptide; western blot; WT control. Background: In western blotting, separated proteins are transferred to a membrane and probed.
Data set [3] concerns the target ArgD-6xHis, recombinant Synechocystis ArgD (Synechocystis sp. PCC 6803) (UniProt P73133). Description: isothermal spectral shift assay; 5 nM labeled ArgD or 20 nM labeled Gun4 (Red NHS dye) titrated with a serial dilution of the unlabelled partner; 25 mM Tris, 0.1% Pluronic F-127, pH 8, 25°C; Monolith X; triplicate.
Data set [4] deals with the molecule itself. Description: native gel or EMSA; 2D blue native/SDS-PAGE of the f.ArgD anti-FLAG eluate; apparent mass on the BN gel.
The target in data set [5] is T1, ArgD-6xHis, recombinant Synechocystis ArgD (Synechocystis sp. PCC 6803, UniProt P73133 1-429, 2nd Generation Red NHS dye).
T1 construct: N-acetylornithine aminotransferase ArgD, Synechocystis sp; PCC 6803, gene slr1022; the recombinant protein produced in E. coli is called full-length where the antibodies are described; Construct pET21a-argD; also called labeled ArgD; source: E. coli BL21 (DE3), pET21a, purified (Ni-NTA); not shown: His6, C-terminal, kept
T1 sequence (looked up): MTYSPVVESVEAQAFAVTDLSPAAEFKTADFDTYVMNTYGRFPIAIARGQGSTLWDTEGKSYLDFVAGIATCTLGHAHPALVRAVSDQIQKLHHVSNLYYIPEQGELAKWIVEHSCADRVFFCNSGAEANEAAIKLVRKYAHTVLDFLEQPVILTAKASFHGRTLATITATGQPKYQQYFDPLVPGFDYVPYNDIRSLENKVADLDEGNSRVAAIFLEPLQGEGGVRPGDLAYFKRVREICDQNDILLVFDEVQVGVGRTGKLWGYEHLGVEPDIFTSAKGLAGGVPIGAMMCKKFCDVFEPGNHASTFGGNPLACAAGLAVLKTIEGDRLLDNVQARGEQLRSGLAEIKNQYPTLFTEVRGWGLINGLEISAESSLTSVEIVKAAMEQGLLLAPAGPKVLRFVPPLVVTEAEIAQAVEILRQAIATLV
Description: isothermal spectral shift assay; 5 nM labeled ArgD or 20 nM labeled Gun4 (Red NHS dye) titrated with a serial dilution of the unlabelled partner; 25 mM Tris, 0.1% Pluronic F-127, pH 8, 25°C; Monolith X; triplicate. The conditions noted are these: both partners purified.

Data set [6] concerns the target Gun4-6xHis, recombinant Synechocystis Gun4 (Synechocystis sp. PCC 6803). The description is as above.

The Kd is the concentration at which binding is half-saturated. By stoichiometry N is commonly meant the number of molecules, sites or subunits per partner or assembly.

“Gun4 protein of Synechocystis sp. PCC 6803 (native) (natural protein)”: the fold more Gun4 co-purified with f.ArgD (cells with 1 mM Orn for 24 h against cells without Orn) in data set [1] turned out to be 6 times. In addition, in data set [2], the fold enrichment of Gun4 in the f.ArgD pull-down (Orn-treated cells against control) is more than 12 × and the fold increase of f.ArgD-co-purified Gun4 (1 h feeding with 100 μM Orn against control) came out at 6 times.
Take “Gun4-6xHis, recombinant Synechocystis Gun4 (natural protein)”: the Kd in data set [3] worked out at 55.8 nM.

B1: 3×FLAG-tagged ArgD (N-acetylornithine aminotransferase) of Synechocystis sp. PCC 6803 (enzyme, UniProt P73133 1-429, looked up)
chain: T1 sequence (looked up)
notes: N-acetylornithine aminotransferase ArgD, Synechocystis sp; PCC 6803, gene slr1022; synthetic argD gene with optimised codon usage cloned into pPD-NFLAG; f.ArgD printed as 49.8 kDa; also called f.ArgD; source: Synechocystis f.argD+/ΔargD or f.argD+/ΔcphB strain (psbAII promoter), soluble fraction; not shown: 3xFLAG, N-terminal, kept
For B1, the “stoichiometry N” value in data set [4] was 2.

B2: CphB-6xHis, recombinant Synechocystis CphB (enzyme, Synechocystis sp. PCC 6803, UniProt P73832 1-271, looked up)
chain: MPLSSQPAILIIGGAEDKVHGREILQTFWSRSGGNDAIIGIIPSASREPLLIGERYQTIFSDMGVKELKVLDIRDRAQGDDSGYRLFVEQCTGIFMTGGDQLRLCGLLADTPLMDRIRQRVHNGEISLAGTSAGAAVMGHHMIAGGSSGEWPNRALVDMAVGLGIVPEIVVDQHFHNRNRMARLLSAISTHPELLGLGIDEDTCAMFERDGSVKVIGQGTVSFVDARDMSYTNAALVGANAPLSLHNLRLNILVHGEVYHQVKQRAFPRVT
notes: cyanophycinase CphB, Synechocystis sp; PCC 6803, gene slr2001; the recombinant protein produced in E. coli is called full-length where the antibodies are described; Construct pET21a-cphB; source: E. coli BL21 (DE3), pET21a, purified (Ni-NTA); not shown: His6, C-terminal, kept
B2: the Kd in data set [5] worked out at 29800 ± 960 nM; in data set [6], 2160 nM.

B3: cyanophycinase CphB of Synechocystis sp. PCC 6803 (native) (enzyme, UniProt P73832 1-271, looked up)
chain: B2 chain
notes: cyanophycinase CphB, Synechocystis sp; PCC 6803, gene slr2001; printed as 29.4 kDa; Migrated like a large oligomer (>200 kDa) on the BN gel; source: endogenous, Synechocystis soluble fraction
Turning to B3, in data set [4], the binding result is given as “binds”.
